Patent US20260116951A1

Tests used:
[1] = target: Human CD200R, full length, on transduced U937 cells (U937-CD200R) (human) (UniProt Q8TD46); assay: cell-based or functional assay
[2] = target: Recombinant Cyno CD200R, His-tagged (Creative Biomart CD200R1-3483C) (cynomolgus monkey); assay: SPR (BIAcore T200), CD200-Fc captured on anti-human Fc, cyno CD200R flowed, 25 C, 1:1 fit
[3] = target: Recombinant Human CD200R, His-tagged (Creative Biomart CD200R1-320H) (human) (UniProt Q8TD46); assay: SPR, CD200R flowed over immobilized CD200-Fc, 25 C, 1:1 fit, mean of 2 experiments with standard deviation
[4] = target: Recombinant Human CD200R, His-tagged (Creative Biomart CD200R1-320H) (human) (UniProt Q8TD46); assay: SPR (BIAcore), DS-155 captured (0.5 ug/mL), HuCD200R1 flowed at 500 nM to 31.25 nM, 25 C, 1:1 Binding model, run 2
[5] = target: Recombinant Human CD200R, His-tagged (Creative Biomart CD200R1-320H) (human) (UniProt Q8TD46); assay: SPR (BIAcore), DS-155 captured (0.5 ug/mL), HuCD200R1 flowed at 500 nM to 31.25 nM, 25 C, 1:1 Binding model, run 1
[6] = target: Recombinant Cyno CD200R, His-tagged (Creative Biomart CD200R1-3483C) (cynomolgus monkey); assay: SPR (BIAcore T200), CD200-Fc captured on anti-human Fc, cyno CD200R flowed, 25 C, 1:1 fit, mean of two runs
[7] = target: Recombinant Cyno CD200R, His-tagged (Creative Biomart CD200R1-3483C) (cynomolgus monkey); assay: SPR (BIAcore), DS-155 captured (0.5 ug/mL), CynoCD200R1 flowed at 1000 nM to 62.5 nM, 25 C, 1:1 Binding model, run 1
[8] = target: Recombinant Cyno CD200R, His-tagged (Creative Biomart CD200R1-3483C) (cynomolgus monkey); assay: SPR (BIAcore), DS-155 captured (0.5 ug/mL), CynoCD200R1 flowed at 1000 nM to 62.5 nM, 25 C, 1:1 Binding model, run 2
[9] = target: Recombinant Cyno CD200R, His-tagged (Creative Biomart CD200R1-3483C) (cynomolgus monkey); assay: SPR, cyno CD200R1 flowed over immobilized CD200-Fc, 25 C, 1:1 fit, mean of 2 experiments with standard deviation
[10] = target: Recombinant Human CD200R, His-tagged (Creative Biomart CD200R1-320H) (human) (UniProt Q8TD46); assay: SPR (BIAcore T200), CD200-Fc captured on anti-human Fc, CD200R flowed, 25 C, 1:1 fit
[11] = target: Recombinant Cyno CD200R, His-tagged (Creative Biomart CD200R1-3483C) (cynomolgus monkey); assay: SPR, cyno CD200R1 flowed over immobilized CD200-Fc, 25 C, 1:1 fit
[12] = target: Recombinant Human CD200R, His-tagged (Creative Biomart CD200R1-320H) (human) (UniProt Q8TD46); assay: SPR, CD200R flowed over immobilized CD200-Fc, 25 C, 1:1 fit
[13] = target: Recombinant Human CD200R, His-tagged (Creative Biomart CD200R1-320H) (human) (UniProt Q8TD46); assay: SPR (BIAcore T200), CD200-Fc captured on anti-human Fc, CD200R flowed, 25 C, 1:1 fit, mean of two runs

Recombinant Human CD200R, His-tagged (Creative Biomart CD200R1-320H) (human), sequence (Q8TD46 27-266 limits assumed): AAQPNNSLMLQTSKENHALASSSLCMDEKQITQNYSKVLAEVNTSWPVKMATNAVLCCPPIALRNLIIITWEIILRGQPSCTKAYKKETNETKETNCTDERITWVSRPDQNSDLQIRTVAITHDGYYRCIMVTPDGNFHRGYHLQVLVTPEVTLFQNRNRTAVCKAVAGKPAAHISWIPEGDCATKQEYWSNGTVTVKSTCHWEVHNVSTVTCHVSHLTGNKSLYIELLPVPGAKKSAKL
Human CD200R, full length, on transduced U937 cells (U937-CD200R) (human), sequence (Q8TD46 25-348): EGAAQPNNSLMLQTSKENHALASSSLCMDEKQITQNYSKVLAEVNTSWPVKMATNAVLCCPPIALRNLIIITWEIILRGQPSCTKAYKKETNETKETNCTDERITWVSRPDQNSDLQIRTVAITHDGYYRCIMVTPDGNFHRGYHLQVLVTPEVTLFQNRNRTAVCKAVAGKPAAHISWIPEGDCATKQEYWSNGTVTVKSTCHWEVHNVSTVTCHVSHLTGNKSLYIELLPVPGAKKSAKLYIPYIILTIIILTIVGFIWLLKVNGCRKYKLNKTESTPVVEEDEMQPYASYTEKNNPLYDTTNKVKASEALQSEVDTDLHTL

t½ [2]: 11.8 s
Kd [6]: 971 nM
koff [6]: 0.0586 s⁻¹
kon [6]: 60600 M⁻¹ s⁻¹
Kd [7]: 888 nM
koff [7]: 0.0564 s⁻¹
kon [7]: 63500 M⁻¹ s⁻¹
Kd [8]: 1050 nM
koff [8]: 0.0608 s⁻¹
kon [8]: 57600 M⁻¹ s⁻¹
Kd [9]: 971 nM
T1/2 [11]: 11.8 s
Substance: DS-155 (wild-type human CD200-Fc, IgG4 S228P Fc) (from UniProt P41217 31-232) (Fc fusion)
inhibition of LPS stimulated IL-6 release from U937-CD200R cells, IC50 [1]: 0.18 µg/mL
Kd [3]: 179 nM
Kd [4]: 183 nM
kon [4]: 180000 M⁻¹ s⁻¹
Kd [5]: 174 nM
koff [5]: 0.0324 s⁻¹
kon [5]: 186000 M⁻¹ s⁻¹
t½ [10]: 21.1 s
T1/2 [12]: 21.1 s
Kd [13]: 179 nM
koff [13]: 0.0326 s⁻¹
kon [13]: 183000 M⁻¹ s⁻¹
